These results are taken from patent US6884600B1, “Protein phosphatase-1 catalytic subunit interactions” (Medical Research Council London, priority 1996, dated 2005).

One assay deals with T1, myosin (Gallus gallus, UniProt P10587).
T1 construct: from tissue; host or cells: chicken gizzard
Briefly: Myosin binding assay (pelleting with myosin). The arrangement: species or system chicken. The conditions noted are these: myosin 1 μM, 15 min 0° C. On the procedure:
The PP1 catalytic subunit (PP1c), PP1M, or PP1M lacking the M21 subunit, PP1M(ΔM21), each at 30 nM, were incubated for 15 min at 0° C. with 1 μM myosin and centrifuged (see Methods of Example 3). […] The results shown are the average (±S.E.M.) for three separate experiments each assayed in duplicate.
(A); PP1M, M110-(M1-S477) and GST-M110-(M377-K976), each at 30 nM were incubated for 15 min at 0° C. with 1 μM myosin and centrifuged. The supernatants (S), resuspended pellets (P) and the suspension before centrifugation (T, total) were electrophoresed on 12% SDS/polyacrylamide gels, transferred to nitrocellulose and immunoblotted with antibodies raised against the PP1M holoenzyme. No protein was pelleted in the absence of myosin (not shown). The positions of the marker proteins myosin heavy chain (200 kDa), glycogen phosphorylase (97 kDa), bovine serum albumin (66 kDa), ovalbumin (43 kDa), carbonic anhydrase (29 kDa) and soybean trypsin inhibitor (20 kDa) are indicated. (B) The experiments were carried out as in (A), except that the M110 fragments and M21 subunit were used at 100 nM, the 8.5 kDa M110-(K933-I1004) fragment was electrophoresed on a 16.5% polyacrylamide gel and immunoblotting was carried out with affinity purified antibodies (see Methods). A small amount of M110-(R714-I1004) pelleted in the absence of myosin. […] No other protein was pelleted in the absence of myosin.
(A); Myosin (1 μM) was mixed with 50 μM, 20 μM or 10 μM M21 subunit to give the molar ratios M21:myosin dimer indicated. After 15 min at 0° C., the solutions were centrifuged and the supernatants (S), resuspended pellets (P) and the suspension before centrifugation (T, total) were electrophoresed on 12% SDS/polyacrylamide gels and stained with Coomassie blue. The positions of the myosin heavy chain (MHC) and the M21 subunit are indicated. The myosin light chains migrate faster than the M21 subunit and are not visible at these loadings.
Myosin binding assays. Myosin (0.5 mg/ml, 1 μM in terms of myosin heavy chains) in 10 mM Hepes pH 7.5, 50 mM KCl, 5 mM MgCl2, 0.1% (by vol) 2-mercaptoethanol, was mixed with PP1M, M21 subunit, or fragments of the M110 and M21 subunits, at the concentrations indicated in figure legends. After incubation for 15 min at 0° C., the solutions were centrifuged for 2 min at 13,000×g, the supernatants removed, and the pellets washed twice in 10 mM Hepes pH 7.5, 50 mM KCl, 5 mM MgCl2, 0.1% (by vol) 2-mercaptoethanol before resuspension in 50 mM Tris-HCl pH 7.5, 0.1 mM EGTA, 0.03% (by mass) Brij 35, 0.6 M NaCl, 0.1% (by vol) 2-mercaptoethanol. Aliquots of the supernatant, the resuspended pellet and the suspension before centrifugation were either assayed for myosin P-light chain phosphatase activity or denatured in SDS and analysed by SDS/polyacrylamide gel electrophoresis.

The next assay deals with M21 subunit. Briefly: Far Western blotting: interaction with the M21 subunit. Conditions: for recognised by digoxigenin-labelled M21 subunit in Far Western blotting: probe 0.2 μg/ml. It is filed as binding, chicken. As for the experimental part: A) PP1M 5 μg (track 1), 10 μg bacterial extract containing M110-(R714-I1004) (track 2), MBP-M110-(R714-I004) 1 μg (track 3), MBP-M110-(R714-L934) 1 μg (track 4), MBP-M110-(K933-I1004) 1 μg (track 5), MBP 1 μg (track 6), M110-(M1-E309) 2 μg (lane 7) and M110-(M1-S477) 2 μg (track 8) were run on a 12% SDS/polyacrylamide gel and stained with Coomassie Blue. B) same as A) except that 10-fold less protein was electrophoresed and after transfer to nitrocellulose the proteins were probed with digoxigenin-labelled M21 subunit (0.2 μg/ml). C) same as B) except that, after electrophoresis, the proteins were transferred to nitrocellulose and probed with digoxigenin-labelled M21-(M1-L146) (0.2 μg/ml).
A) GST-M21 5 μg (track 1), M21 5 μg (track 2), M21-(M1-L146) 5 μg (track 3), M21-(M1-E110) 20 μg (track 4) and M21-(E110-K186) 5 μg (track 5) were run on 16.5% polyacrylamide gels and stained with Coomassie Blue. The marker proteins ovalbumin (43 kDa) and carbonic anhydrase (29 kDa) are indicated. B) GST-M21 0.5 μg (track 1), M21 0.5 μg (track 2), M21-M1-L146) 0.5 μg (track 3), M21-(M1-E110) 5 μg (track 4) and M21-(E110-K186) 5 μg (track 5) were electrophoresed as in A) and after transfer to nitrocellulose the blots were probed with digoxigenin-labelled MBP-M110-(K933-I1004) (0.2 μg/Ml). C) same as B) except that, after electrophoresis, the proteins were transferred to nitrocellulose and probed with digoxigenin-labelled M21 subunit (0.2 μg/ml).
PP1M (0.5 μAg) was electrophoresed on a 12% SDS/polyacrylamide gel, transferred to nitrocellulose and probed with digoxigenin-labelled M21 subunit (0.2 μg/ml) (track 1) or digoxigenin-labelled M21-(M1-L146) (0.2 μg/ml) (track 2). The positions of the M110 subunit, the M21 subunit and PP1c are marked.
Proteins were labelled with digoxigenin and Far Western analyses carried out as described, except that the digoxigenin-labelled probe was used at a concentration of 0.2 μg/ml instead of 2 μg/ml. SDS/polyacrylamide gel electrophoresis was carried out on 7.5-15% gels according to Laemmli and on 16.5% gels according to Schagger and von Jagow. Protein was estimated according to Bradford.

T1 sequence (P10587 whole entry): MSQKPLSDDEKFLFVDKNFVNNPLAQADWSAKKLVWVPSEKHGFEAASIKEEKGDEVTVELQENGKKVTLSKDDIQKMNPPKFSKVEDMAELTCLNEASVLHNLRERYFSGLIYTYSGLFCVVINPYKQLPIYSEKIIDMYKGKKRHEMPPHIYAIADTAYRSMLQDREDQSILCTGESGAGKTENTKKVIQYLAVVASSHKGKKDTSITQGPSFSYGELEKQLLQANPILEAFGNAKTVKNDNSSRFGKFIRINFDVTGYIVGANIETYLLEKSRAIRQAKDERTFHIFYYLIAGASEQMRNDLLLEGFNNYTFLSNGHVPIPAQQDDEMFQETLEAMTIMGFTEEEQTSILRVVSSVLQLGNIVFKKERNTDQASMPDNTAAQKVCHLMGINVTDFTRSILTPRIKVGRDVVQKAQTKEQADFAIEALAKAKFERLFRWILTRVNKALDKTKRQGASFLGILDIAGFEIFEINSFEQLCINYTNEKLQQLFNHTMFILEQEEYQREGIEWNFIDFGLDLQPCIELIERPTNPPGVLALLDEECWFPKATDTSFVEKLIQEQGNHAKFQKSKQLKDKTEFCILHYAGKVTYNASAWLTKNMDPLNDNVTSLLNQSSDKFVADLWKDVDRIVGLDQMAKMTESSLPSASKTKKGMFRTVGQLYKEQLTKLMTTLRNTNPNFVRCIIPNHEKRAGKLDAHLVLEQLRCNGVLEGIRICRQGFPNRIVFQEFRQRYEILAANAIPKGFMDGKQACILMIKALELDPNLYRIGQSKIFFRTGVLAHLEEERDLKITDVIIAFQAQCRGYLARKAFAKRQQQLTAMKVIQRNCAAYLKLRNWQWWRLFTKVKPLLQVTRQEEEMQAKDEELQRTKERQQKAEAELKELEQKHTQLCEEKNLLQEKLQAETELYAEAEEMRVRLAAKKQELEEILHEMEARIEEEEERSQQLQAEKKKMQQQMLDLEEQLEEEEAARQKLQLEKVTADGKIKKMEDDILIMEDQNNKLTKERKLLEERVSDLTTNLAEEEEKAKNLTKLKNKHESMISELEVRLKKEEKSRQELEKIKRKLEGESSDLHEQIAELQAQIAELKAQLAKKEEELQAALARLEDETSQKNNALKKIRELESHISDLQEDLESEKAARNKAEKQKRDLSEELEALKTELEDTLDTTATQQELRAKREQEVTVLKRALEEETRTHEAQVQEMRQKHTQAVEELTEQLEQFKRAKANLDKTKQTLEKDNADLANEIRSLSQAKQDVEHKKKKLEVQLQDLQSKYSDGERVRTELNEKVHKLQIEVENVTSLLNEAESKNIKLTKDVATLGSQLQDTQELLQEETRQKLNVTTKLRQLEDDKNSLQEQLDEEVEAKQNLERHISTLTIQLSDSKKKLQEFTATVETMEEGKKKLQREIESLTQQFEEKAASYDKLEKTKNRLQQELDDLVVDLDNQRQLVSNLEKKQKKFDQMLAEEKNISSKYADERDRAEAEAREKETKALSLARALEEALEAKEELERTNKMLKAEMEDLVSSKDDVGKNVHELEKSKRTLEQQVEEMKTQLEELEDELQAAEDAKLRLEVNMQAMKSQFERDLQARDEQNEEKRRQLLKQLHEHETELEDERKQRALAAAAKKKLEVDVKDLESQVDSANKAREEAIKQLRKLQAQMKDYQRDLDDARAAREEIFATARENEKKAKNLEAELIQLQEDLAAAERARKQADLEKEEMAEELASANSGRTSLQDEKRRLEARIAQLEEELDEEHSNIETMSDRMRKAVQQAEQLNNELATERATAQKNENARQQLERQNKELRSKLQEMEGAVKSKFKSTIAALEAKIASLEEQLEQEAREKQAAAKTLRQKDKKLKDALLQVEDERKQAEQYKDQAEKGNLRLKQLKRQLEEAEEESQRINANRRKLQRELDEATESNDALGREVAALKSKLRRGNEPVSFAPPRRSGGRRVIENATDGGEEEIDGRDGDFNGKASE
T1 sequence (P02612 whole entry partner): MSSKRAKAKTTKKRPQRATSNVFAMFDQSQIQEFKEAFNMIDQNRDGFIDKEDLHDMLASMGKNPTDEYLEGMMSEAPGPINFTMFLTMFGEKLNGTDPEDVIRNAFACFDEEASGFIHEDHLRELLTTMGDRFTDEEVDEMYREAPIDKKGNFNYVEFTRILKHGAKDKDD
T1 sequence (P02607 whole entry partner): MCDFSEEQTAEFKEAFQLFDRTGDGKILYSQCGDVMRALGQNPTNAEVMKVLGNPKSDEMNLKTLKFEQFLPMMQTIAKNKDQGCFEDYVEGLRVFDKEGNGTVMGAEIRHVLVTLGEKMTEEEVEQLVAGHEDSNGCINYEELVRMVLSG

B1: GST-M110-(M377-K976): GST fusion of the C-terminal 600 residues of the M110 subunit from rat aorta (protein)
chain: MASVTNAHTASTQAAPAAVTTPTLSSNQGTPTSPVKKFPTSTTKISPKEEERKDESPASWRLGLRKTGSYGALAEITASKEAQKEKDTAGVIRSASSPRLSSSLDNKEKEKDNKGTRLAYVAPTIPRRLGSTSDIEEKENRESSNLRTSSSYTRRKWEDDLKKNSSINEGSTYHRSTSNRLWAEDSTEKEKDSAPTAATILVAPTVVSAAASSTTALTTTTAGTLSSTSEVRERRRSYLTPVRDEESESQRKARSRQARQSRRSTQGVTLTDLQEAEKTIGRSRSTRTREQENEEKDKEEKEKQDKEKQEEKKESEVSREDEYKQKYSRTYDETYARYRPVSTSSSSTPSSSSLSTLGSSLYASSQLNRPNSLVGITSAYSRGLTKDNEREGEKKEEEKEGEDKSQPKSIRERRRPREKRRSTGVSFWTQDSDENEQERQSDTEDGSSKRDTQTDSVSRYDSSSTSSSDRYDSLLGRSASYSYLEERKPYGSRLEKDDSTDFKKLYEQILAENEKLKAQLHDTNMELTDLKLQLEKATQRQERFADRSLLEMEKRERRALERRISEMEEELKMLPDLKADNQRLKDENGALIRVISKLSK
modifications: left off: a dimerising Fc or GST
notes: GST fusion of the C-terminal 600 residues of the M110 subunit from rat aorta
As to B1, in the assay with myosin, the binding to myosin entry is on record as “bound to myosin”.

B2: GST-M21: GST fusion of the chicken gizzard M21 subunit (M1-K186) (protein)
chain: MSSLFTRSKEYTRSRKSQSDSPPSSPSPIAKTLRHERLSRLEAATTPATSDSYSDRASSRSSAYSRRENRLAALSSRAEEESNRDYKKLYESALSENQKLKSKLQEAQLELADIKSKLEKAAQQKHEKTSDRSSMLEMEKREKRALERKLSEMEEEMKILTELKSDNQRLKDENGALIRVISKLSK
modifications: left off: a dimerising Fc or GST; small tags and cut ends
As to B2, the binding to myosin entry with myosin was “bound to myosin”.

B3: M110-(R714-I1004): C-terminal 291 residues of the chicken gizzard M110 subunit (protein)
chain: RSTRTREQENEEKEKEEKEKQDKEKQEEKKESETKDDDYRQRYSRTVEEPYHRYRPTSTSTSTSSTSSLSTSTSSLSSSSQLNRPNSLIGITSAYSRSGTKESEREGGKKEEEKEEDKSQPKSIRERRRPREKRRSTGVSFWTQDSDENEQEHQSDSEEGTNKKETQSDSLSRYDTGSLSVSSGDRYDSAQGRSGSQSYLEDRKPYCSRLEKEDSTDFKKLYEQILAENEKLKAQLHDTNMELTDLKLQLEKTTQRQERFADRSLLEMEKRVSGKSQYLLGGKKSSRKKDI
As to B3, in the assay with M21 subunit, the “recognised by digoxigenin-labelled M21 subunit in Far Western blotting” value (shortened to “recognised … in Far Western blotting”) was “recognised”. Moreover, in the assay with myosin, the binding to myosin entry was “bound to myosin”.

B4: complex between GST-M21 and M110-(R714-I1004): complex purified on glutathione-Sepharose from GST-M21 mixed with bacterial extract expressing M110-(R714-I1004) (protein)
GST-M21 (M21 part): MSSLFTRSKEYTRSRKSQSDSPPSSPSPIAKTLRHERLSRLEAATTPATSDSYSDRASSRSSAYSRRENRLAALSSRAEEESNRDYKKLYESALSENQKLKSKLQEAQLELADIKSKLEKAAQQKHEKTSDRSSMLEMEKREKRALERKLSEMEEEMKILTELKSDNQRLKDENGALIRVISKLSK
M110-(R714-I1004): RSTRTREQENEEKEKEEKEKQDKEKQEEKKESETKDDDYRQRYSRTVEEPYHRYRPTSTSTSTSSTSSLSTSTSSLSSSSQLNRPNSLIGITSAYSRSGTKESEREGGKKEEEKEEDKSQPKSIRERRRPREKRRSTGVSFWTQDSDENEQEHQSDSEEGTNKKETQSDSLSRYDTGSLSVSSGDRYDSAQGRSGSQSYLEDRKPYCSRLEKEDSTDFKKLYEQILAENEKLKAQLHDTNMELTDLKLQLEKTTQRQERFADRSLLEMEKRVSGKSQYLLGGKKSSRKKDI
modifications: left off: a dimerising Fc or GST; small tags and cut ends
For B4, the binding to myosin result in the assay with myosin is on record as “bound quantitatively to myosin”.

B5: MBP-M110-(R714-L934): maltose binding protein fusion of M110-(R714-L934) (protein)
chain: RSTRTREQENEEKEKEEKEKQDKEKQEEKKESETKDDDYRQRYSRTVEEPYHRYRPTSTSTSTSSTSSLSTSTSSLSSSSQLNRPNSLIGITSAYSRSGTKESEREGGKKEEEKEEDKSQPKSIRERRRPREKRRSTGVSFWTQDSDENEQEHQSDSEEGTNKKETQSDSLSRYDTGSLSVSSGDRYDSAQGRSGSQSYLEDRKPYCSRLEKEDSTDFKKLGTGRRFTTS
modifications: left off: large carriers
Regarding B5, in the assay with M21 subunit, the “digoxigenin-labelled probe recognises the full length M21 subunit and M21(M1-L146) in Far Western blotting” value is listed as “not”.

B6: M110-(M1-S477): rat aorta M110 fragment, residues 1-477, GST tag removed (protein, UniProt Q10728 1-477, looked up, fragment)
chain: MKMADAKQKRNEQLKRWIGSETDLEPPVVKRQKTKVKFDDGAVFLAACSSGDTDEVLKLLHRGADINYANVDGLTALHQACIDDNVDMVKFLVENGANINQPDNEGWIPLHAAASCGYLDIAEFLIGQGAHVGAVNSEGDTPLDIAEEEAMEELLQNEVNRQGVDIEAARKEEERIMLRDARQWLNSGHISDVRHAKSGGTALHVAAAKGYTEVLKLLIQAGYDVNIKDYDGWTPLHAAAHWGKEEACRILVDNLCDMETVNKVGQTAFDVADEDILGYLEELQKKQNLLHSEKRDKKSPLIESTANMENNQPQKTFKNKETLIIEPEKNASRIESLEQEKADEEEEGKKDESSCSSEEDEEDDSESEAETDKTKPMASVTNAHTASTQAAPAAVTTPTLSSNQGTPTSPVKKFPTSTTKISPKEEERKDESPASWRLGLRKTGSYGALAEITASKEAQKEKDTAGVIRSASSPRLS
Turning to B6, the “recognised … in Far Western blotting” value with M21 subunit was “not”. Further, the binding to myosin entry in the assay with myosin is reported as “did not bind to myosin”.

B7: M110-(K933-I1004): C-terminal 72 residues of the chicken gizzard M110 subunit (protein, UniProt Q90623 933-1004, looked up, fragment)
chain: KLYEQILAENEKLKAQLHDTNMELTDLKLQLEKTTQRQERFADRSLLEMEKRVSGKSQYLLGGKKSSRKKDI
Consider B7, for which, in the assay on M21 subunit, the “recognised … in Far Western blotting” value is listed as “recognised”. Further, the binding to myosin result with myosin is reported as “did not bind to myosin”.
